*1 amine or outer side, *2 acyl side, *3 side chain or, on linkers, in order; H or OH if unused. Side-chain parts run from the residue outwards. The star is where a group is joined. C18 diacid = O=C(O)CCCCCCCCCCCCCCCCC(=O)*; γGlu = O=C(O)[C@H](CCC(=O)[*:2])N[*:1]; Isovaleryl = CC(C)CC(=O)*; Ahx = NCCCCCC(=O)O
T1: human NPY2 receptor (human, UniProt P49146 1-381)
T1 construct: whole, on cells; also called hNPY2-R; hNPY2R
T1 sequence (looked up): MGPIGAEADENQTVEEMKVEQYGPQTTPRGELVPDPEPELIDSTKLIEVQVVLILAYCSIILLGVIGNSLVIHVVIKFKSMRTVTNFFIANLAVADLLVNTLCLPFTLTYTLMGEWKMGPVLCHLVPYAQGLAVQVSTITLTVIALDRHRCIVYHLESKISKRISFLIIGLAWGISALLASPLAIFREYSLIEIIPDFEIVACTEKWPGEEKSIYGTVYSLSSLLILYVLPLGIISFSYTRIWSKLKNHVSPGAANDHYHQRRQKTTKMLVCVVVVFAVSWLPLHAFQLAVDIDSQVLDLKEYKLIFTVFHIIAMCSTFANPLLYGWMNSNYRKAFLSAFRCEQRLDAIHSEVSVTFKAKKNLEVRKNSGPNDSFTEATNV


Target: T1, human NPY2 receptor
Assay: RLB: displacement of 125I-PYY(1-36) from hNPY2R membranes

Binder | Ki [nM]
Isovaleryl-APEK([Ahx-γGlu-C18 diacid])PEEDATPEEEQRYYVSLRHYYNWLTRQRY-NH2 (SMILES CC(C)CC(=O)N[C@@H](C)C(=O)N1CCC[C@H]1C(=O)N[C@@H](CCC(=O)O)C(=O)N[C@@H](CCCCNC(=O)CCCCCNC(=O)CC[C@H](NC(=O)CCCCCCCCCCCCCCCCC(=O)O)C(=O)O)C(=O)N1CCC[C@H]1C(=O)N[C@@H](CCC(=O)O)C(=O)N[C@@H](CCC(=O)O)C(=O)N[C@@H](CC(=O)O)C(=O)N[C@@H](C)C(=O)N[C@H](C(=O)N1CCC[C@H]1C(=O)N[C@@H](CCC(=O)O)C(=O)N[C@@H](CCC(=O)O)C(=O)N[C@@H](CCC(=O)O)C(=O)N[C@@H](CCC(N)=O)C(=O)N[C@@H](CCCNC(=N)N)C(=O)N[C@@H](Cc1ccc(O)cc1)C(=O)N[C@@H](Cc1ccc(O)cc1)C(=O)N[C@H](C(=O)N[C@@H](CO)C(=O)N[C@@H](CC(C)C)C(=O)N[C@@H](CCCNC(=N)N)C(=O)N[C@@H](Cc1c[nH]cn1)C(=O)N[C@@H](Cc1ccc(O)cc1)C(=O)N[C@@H](Cc1ccc(O)cc1)C(=O)N[C@@H](CC(N)=O)C(=O)N[C@@H](Cc1c[nH]c2ccccc12)C(=O)N[C@@H](CC(C)C)C(=O)N[C@H](C(=O)N[C@@H](CCCNC(=N)N)C(=O)N[C@@H](CCC(N)=O)C(=O)N[C@@H](CCCNC(=N)N)C(=O)N[C@@H](Cc1ccc(O)cc1)C(N)=O)[C@@H](C)O)C(C)C)[C@@H](C)O) [Compound 162] | 14.9
Isovaleryl-APAK([Ahx-γGlu-C18 diacid])PEEAAEPEELQRYYVALRHYYNWLTRQRY-NH2 (SMILES CC(C)CC(=O)N[C@@H](C)C(=O)N1CCC[C@H]1C(=O)N[C@@H](C)C(=O)N[C@@H](CCCCNC(=O)CCCCCNC(=O)CC[C@H](NC(=O)CCCCCCCCCCCCCCCCC(=O)O)C(=O)O)C(=O)N1CCC[C@H]1C(=O)N[C@@H](CCC(=O)O)C(=O)N[C@@H](CCC(=O)O)C(=O)N[C@@H](C)C(=O)N[C@@H](C)C(=O)N[C@@H](CCC(=O)O)C(=O)N1CCC[C@H]1C(=O)N[C@@H](CCC(=O)O)C(=O)N[C@@H](CCC(=O)O)C(=O)N[C@@H](CC(C)C)C(=O)N[C@@H](CCC(N)=O)C(=O)N[C@@H](CCCNC(=N)N)C(=O)N[C@@H](Cc1ccc(O)cc1)C(=O)N[C@@H](Cc1ccc(O)cc1)C(=O)N[C@H](C(=O)N[C@@H](C)C(=O)N[C@@H](CC(C)C)C(=O)N[C@@H](CCCNC(=N)N)C(=O)N[C@@H](Cc1c[nH]cn1)C(=O)N[C@@H](Cc1ccc(O)cc1)C(=O)N[C@@H](Cc1ccc(O)cc1)C(=O)N[C@@H](CC(N)=O)C(=O)N[C@@H](Cc1c[nH]c2ccccc12)C(=O)N[C@@H](CC(C)C)C(=O)N[C@H](C(=O)N[C@@H](CCCNC(=N)N)C(=O)N[C@@H](CCC(N)=O)C(=O)N[C@@H](CCCNC(=N)N)C(=O)N[C@@H](Cc1ccc(O)cc1)C(N)=O)[C@@H](C)O)C(C)C) [Compound 161] | 4
Isovaleryl-APAK([Ahx-γGlu-C18 diacid])PEEAAEPEEIQRYYVALRHYYNWLTRQRY-NH2 (SMILES CC[C@H](C)[C@H](NC(=O)[C@H](CCC(=O)O)NC(=O)[C@H](CCC(=O)O)NC(=O)[C@@H]1CCCN1C(=O)[C@H](CCC(=O)O)NC(=O)[C@H](C)NC(=O)[C@H](C)NC(=O)[C@H](CCC(=O)O)NC(=O)[C@H](CCC(=O)O)NC(=O)[C@@H]1CCCN1C(=O)[C@H](CCCCNC(=O)CCCCCNC(=O)CC[C@H](NC(=O)CCCCCCCCCCCCCCCCC(=O)O)C(=O)O)NC(=O)[C@H](C)NC(=O)[C@@H]1CCCN1C(=O)[C@H](C)NC(=O)CC(C)C)C(=O)N[C@@H](CCC(N)=O)C(=O)N[C@@H](CCCNC(=N)N)C(=O)N[C@@H](Cc1ccc(O)cc1)C(=O)N[C@@H](Cc1ccc(O)cc1)C(=O)N[C@H](C(=O)N[C@@H](C)C(=O)N[C@@H](CC(C)C)C(=O)N[C@@H](CCCNC(=N)N)C(=O)N[C@@H](Cc1c[nH]cn1)C(=O)N[C@@H](Cc1ccc(O)cc1)C(=O)N[C@@H](Cc1ccc(O)cc1)C(=O)N[C@@H](CC(N)=O)C(=O)N[C@@H](Cc1c[nH]c2ccccc12)C(=O)N[C@@H](CC(C)C)C(=O)N[C@H](C(=O)N[C@@H](CCCNC(=N)N)C(=O)N[C@@H](CCC(N)=O)C(=O)N[C@@H](CCCNC(=N)N)C(=O)N[C@@H](Cc1ccc(O)cc1)C(N)=O)[C@@H](C)O)C(C)C) [Compound 167] | 4.58

Now those with a lower Ki, led by results:

Ki [nM] | Binder
2.8 | Isovaleryl-APEK([Ahx-γGlu-C18 diacid])PEEDATPEEIQRYYQSLRHYYNWLTRQRY-NH2 (SMILES CC[C@H](C)[C@H](NC(=O)[C@H](CCC(=O)O)NC(=O)[C@H](CCC(=O)O)NC(=O)[C@@H]1CCCN1C(=O)[C@@H](NC(=O)[C@H](C)NC(=O)[C@H](CC(=O)O)NC(=O)[C@H](CCC(=O)O)NC(=O)[C@H](CCC(=O)O)NC(=O)[C@@H]1CCCN1C(=O)[C@H](CCCCNC(=O)CCCCCNC(=O)CC[C@H](NC(=O)CCCCCCCCCCCCCCCCC(=O)O)C(=O)O)NC(=O)[C@H](CCC(=O)O)NC(=O)[C@@H]1CCCN1C(=O)[C@H](C)NC(=O)CC(C)C)[C@@H](C)O)C(=O)N[C@@H](CCC(N)=O)C(=O)N[C@@H](CCCNC(=N)N)C(=O)N[C@@H](Cc1ccc(O)cc1)C(=O)N[C@@H](Cc1ccc(O)cc1)C(=O)N[C@@H](CCC(N)=O)C(=O)N[C@@H](CO)C(=O)N[C@@H](CC(C)C)C(=O)N[C@@H](CCCNC(=N)N)C(=O)N[C@@H](Cc1c[nH]cn1)C(=O)N[C@@H](Cc1ccc(O)cc1)C(=O)N[C@@H](Cc1ccc(O)cc1)C(=O)N[C@@H](CC(N)=O)C(=O)N[C@@H](Cc1c[nH]c2ccccc12)C(=O)N[C@@H](CC(C)C)C(=O)N[C@H](C(=O)N[C@@H](CCCNC(=N)N)C(=O)N[C@@H](CCC(N)=O)C(=O)N[C@@H](CCCNC(=N)N)C(=O)N[C@@H](Cc1ccc(O)cc1)C(N)=O)[C@@H](C)O) [Compound 164]
2.75 | Isovaleryl-APEK([Ahx-γGlu-C18 diacid])PEADAEPEELQRYYISLRHYYNWLTRQRY-NH2 (SMILES CC[C@H](C)[C@H](NC(=O)[C@H](Cc1ccc(O)cc1)NC(=O)[C@H](Cc1ccc(O)cc1)NC(=O)[C@H](CCCNC(=N)N)NC(=O)[C@H](CCC(N)=O)NC(=O)[C@H](CC(C)C)NC(=O)[C@H](CCC(=O)O)NC(=O)[C@H](CCC(=O)O)NC(=O)[C@@H]1CCCN1C(=O)[C@H](CCC(=O)O)NC(=O)[C@H](C)NC(=O)[C@H](CC(=O)O)NC(=O)[C@H](C)NC(=O)[C@H](CCC(=O)O)NC(=O)[C@@H]1CCCN1C(=O)[C@H](CCCCNC(=O)CCCCCNC(=O)CC[C@H](NC(=O)CCCCCCCCCCCCCCCCC(=O)O)C(=O)O)NC(=O)[C@H](CCC(=O)O)NC(=O)[C@@H]1CCCN1C(=O)[C@H](C)NC(=O)CC(C)C)C(=O)N[C@@H](CO)C(=O)N[C@@H](CC(C)C)C(=O)N[C@@H](CCCNC(=N)N)C(=O)N[C@@H](Cc1c[nH]cn1)C(=O)N[C@@H](Cc1ccc(O)cc1)C(=O)N[C@@H](Cc1ccc(O)cc1)C(=O)N[C@@H](CC(N)=O)C(=O)N[C@@H](Cc1c[nH]c2ccccc12)C(=O)N[C@@H](CC(C)C)C(=O)N[C@H](C(=O)N[C@@H](CCCNC(=N)N)C(=O)N[C@@H](CCC(N)=O)C(=O)N[C@@H](CCCNC(=N)N)C(=O)N[C@@H](Cc1ccc(O)cc1)C(N)=O)[C@@H](C)O) [Compound 159]
2.05 | Isovaleryl-APAK([Ahx-γGlu-C18 diacid])PEEDASPEELQRYYVELRHYYNWLTRQRY-NH2 (SMILES CC(C)CC(=O)N[C@@H](C)C(=O)N1CCC[C@H]1C(=O)N[C@@H](C)C(=O)N[C@@H](CCCCNC(=O)CCCCCNC(=O)CC[C@H](NC(=O)CCCCCCCCCCCCCCCCC(=O)O)C(=O)O)C(=O)N1CCC[C@H]1C(=O)N[C@@H](CCC(=O)O)C(=O)N[C@@H](CCC(=O)O)C(=O)N[C@@H](CC(=O)O)C(=O)N[C@@H](C)C(=O)N[C@@H](CO)C(=O)N1CCC[C@H]1C(=O)N[C@@H](CCC(=O)O)C(=O)N[C@@H](CCC(=O)O)C(=O)N[C@@H](CC(C)C)C(=O)N[C@@H](CCC(N)=O)C(=O)N[C@@H](CCCNC(=N)N)C(=O)N[C@@H](Cc1ccc(O)cc1)C(=O)N[C@@H](Cc1ccc(O)cc1)C(=O)N[C@H](C(=O)N[C@@H](CCC(=O)O)C(=O)N[C@@H](CC(C)C)C(=O)N[C@@H](CCCNC(=N)N)C(=O)N[C@@H](Cc1c[nH]cn1)C(=O)N[C@@H](Cc1ccc(O)cc1)C(=O)N[C@@H](Cc1ccc(O)cc1)C(=O)N[C@@H](CC(N)=O)C(=O)N[C@@H](Cc1c[nH]c2ccccc12)C(=O)N[C@@H](CC(C)C)C(=O)N[C@H](C(=O)N[C@@H](CCCNC(=N)N)C(=O)N[C@@H](CCC(N)=O)C(=O)N[C@@H](CCCNC(=N)N)C(=O)N[C@@H](Cc1ccc(O)cc1)C(N)=O)[C@@H](C)O)C(C)C) [Compound 166]

Reference: patent US20260015399A1 (Boehringer Ingelheim, published 2026)
